The nanobody polyreactivity screen of Harvey et al. (2022)

experiment: yeast display, Sf9 membrane polyspecificity reagent, FACS + sequencing; frameworks hold sequencing errors
Procedure, shortened: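 Synthetic nanobody libraries on Saccharomyces cerevisiae BJ5465 were galactose-induced for 36–48 hours, stained 1 hour at 4 °C with 10% biotinylated, detergent-solubilized Sf9 membrane reagent and enriched on streptavidin microbeads. FACS then separated cells into low and high (top ~1%) gates by anti-HA (expression) and streptavidin (reagent binding) fluorescence. Genes were colony-PCR amplified, MiSeq 2 × 250 sequenced and CDR-length filtered. A clone's polyreactivity label is that of its gate of origin.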

| Sequence | polyreactivity (PSR sort gate) |
| --- | --- |
| QVQLVQSGGGLVQAGGRLSLSCAASGYIFFTNAMGWYRQAPGKERELVAAISSAGRTKYADSVKGRFTISRDNAKNTVYIQMNSLIPEDTAVYYCNKSFYYRWGTGYDYWGQGTQVTVSS | low polyreactivity |
| QVQLVQSGGGLVQAGGSLRLSCAASGGIFRTNPMGWYRQAPGQERALVATISRRGGSTYYADSVKGRFTISRDNAKNTVYFQMNSLKPEDTAVYYCAVEWYYTSNHIRFYRDNYWGQGTQVTVSS | high polyreactivity |
| QVQLVQSGGGLVQAGGSLRLSCAASGRIFNYNAMGWYRQAPGKERELVAAINRSGVSTHYADSVKGRFTISRDNAKNTVYLQMNSLKPEDTAVYYCARTVYGARSYDYWGQGTQVTVSS | low polyreactivity |
| QVQLVQSGGGLVQAGGSLRLSCAASGRIFPRYGMGWYRQAPGKERELCADITSSGSTYADSVKGRFTISRDNAKNTDYLQMHSLKPEDTAVYYCNALDRRLSYSWRYRQLYDYWGQGTQGTVSS | high polyreactivity |
| QVQLVQSGGGLVQAGGSLRLSCAASGRNYSDNPMGWYRQAPGKERELVAANSSTGGTYYADSVKGRFTISRDNAKNTVYLQMNSLKPEDTAVYYCAARYRTLTKYYWGQGTQVSVSS | low polyreactivity |
| QVQLVQSGGGLVQAGGSLRLSCAASGRPSLLMLWDGIDRRLGKKGSWLPLLTLVTPTTYADSVKGRFTISRDNAKNTVYLQMNSLKPEDTAVYYCNADFRPLDHYVNWYYYWGQGTQVTVSS | low polyreactivity |
| QVQLVQSGGGLVQAGGSLRLSCAASGRTFGVYAMGWYRQAPGKERELVAAITWSGGSTYYADSVKGRFTISRDNAKNTVYLQMNSLKPEDTAVYYCAALTWLSGVKMGYWGQGTQVTVSS | high polyreactivity |
| QVQLVQSGGGLVQAGGSLRLSCAASGSIFLYYVMGWYRQAPGQERELVAAITWDGGSTYYADSVKGRFTISRDNAKNTVYLQMNSLNPEDTAVYFCAARVASKYLVYRKRPSRYDYWGQGTQLTVSS | low polyreactivity |
| QVQLVQSGGGLVQAGGSLRLSCAASGSTFPTNAMGSYRQAPGKERELVAAISSSGGRTYYADSVKGRFTISRDNAKKTDYLQRNSLKPEDTAVYYCAAVWWRAYAVRMYYWGQGTQVTVSS | high polyreactivity |
| QVQLVQSGGGLVQAGGSLRLSCAASGSTFYYYGMRSYREAPGKEMELFASISWRGGSTYSADSVKGRYTISRDNAKNTVYLQMNSLKPEDTAVYYCAASRRPWYRAVTWNAGDYWGQGTQVTVSS | high polyreactivity |
| QVQLVQSGGGLVQAGGSLRLSCAASGSTIAYKAMGWNRQAPGKEREMLAAISWRGGSTYYADSVKGRFTISRDNAKNTVYLQMKSLKPEDTAVYYCAKVYRAYTDVVRYGYWGQGSQVTVSS | high polyreactivity |
| QVQLVQSGGGLVQAGGSLRLSCAASGYTFYVNTMGWYRKAPGKERELVAVISSGGRTNYADSVKGRFTISRDNAKNTVYLQMNSLKPEDTAVYYCAAIGWRTRYRFEYWGIGTQVTVSS | high polyreactivity |
| QVQLVQSGGGLVQAGGSLRLSCADSGRTFTRYTMGWYRQAPGKERELVAAISSGGSTTYADSVKGRFTISRDNAKNTVYLQMNSLKPEDTAVYYCAAGLVYRGYRRDYWGQGTQVTVSS | low polyreactivity |
| QVQLVQSGGGLVQAGGSLRLSCAPTGVIFRHNARGWYRQSPGKERELVAAISRSGGNTYYADSVKGRFTISRDNAKQTDYLQRNSLKPEDTAVYYSNKIEYDSWADHVYWGQGTQVTVSS | low polyreactivity |
| QVQLVQTGGGLVQAGGSLRLSCAGSGSTFTSYVMGWYRQAPGKERELVAAITSSGGDTYYADSVKGRFTISRDNAKNTVYLQMNSVKPEDTAVYYCATRSYYRSSYYRNRYPYDYWGQGTQVTVSS | low polyreactivity |
| QVQLVSGGGLVHSGGSLRLSCAASGITFESNAMGWYRQGPGKEREFVAAISYDGGDTYYADSVKGRFTISRDNAKNTVYLQMNSLKPDDTSVYYCAAETGWTMDYWGQGTQVTVSS | low polyreactivity |
| QVQLVSGGGLVQAGGSLRLSCAASGRIFGTYAMGWYRQAPGKERELVAAITSGGSTYYADSVKGRFTISRDNAKNTVYLQMNSLKPEDSAVYYCAAEYAIWTHWGRYVTGNYWGQGTQVTVSS | high polyreactivity |
| QVQLVVSGGGLDQARGSLSLSCAASGRNFTSYAMGWYRQAPWKERELVAAISWSVGSTYYADSVKGRFTISRDNAKNTVYLQMNSLKPEDTSVYYCNAVYPSVYPVSTRYYWGQGTQVTVSS | high polyreactivity |
| QVQLVVSGGGLVHAGGSLRLSCAAYGFTVYKNTMGWYRQAPRKERELVAAISSSGSSTYYADTVKGRFTISRDNAKNTVYLQMNSLKPEDTAVYYCAAGRFAYHDDYWGQGTQVTVSS | high polyreactivity |
| QVQLVVSGGGLVQAGGSLLLSCAASGFTFYSYAMGWYRQAPGKERELVAGISWSGTRTYYADSVKGRFTISRDNAKNTVYLQMISLKPEDTAVYYCAARGYRYGYGYWGQGTQVTVSS | high polyreactivity |
| QVQLVVSGGGLVQAGGSLRLSCAASGGTFGGYAMGWYRQAPGKERELVAVITQRGGSTSYADSVKGRFTISRDNAKNTVYLQLNSQKREDTAVYYCNASAWLVVARTRYGYWGQGTQVTVSS | low polyreactivity |

| Sequence | polyreactivity (PSR sort gate) |
| --- | --- |
| QVQLVVSGGGLVQAGGSLRLSCAASGITFYYNAMGWYRQAPGKEGEVVAAITRRGGSTYYADSVKGRFTISRDNAKNTVYLQMNSLIPEDTAVYYCAKYIYGYKDSPLGDDYWGQGTQVTVSS | high polyreactivity |
| QVQLVVSGGGLVQAGGSLRLSCAASGRTFRSNAMGWYRQAPGKERELVAAISRTGRTNYADSVKGRFTISRDTAKNTVYLQMNSLKPEDTAVYYCAARGYSVPRQERYDYWGQGTQVTVSS | high polyreactivity |
| QVQLVVSGGGLVQAGGSLRLSCAASGRTFSIYAMGWYRQAPWKERELVAAISWSGGRTYYADSVKGRFTISRDNAKNTVYLLMNSLKPEDTAVYYCNKDWIYRGYDYWGQGTQVTVSS | high polyreactivity |
| QVQLVVSGGGLVQAGGSLRLSCAASGSIFKKYAMGWYRQAPGKERELVAAITRGTYYADSVKGRFTISRDNAKNTVYLLMNSLNPEDTAVYYCNREYWVRGYYRVRGEYDYWGQGTQVTVSS | low polyreactivity |
| QVQPQESGGGLVQAGGSLRLSCAASGTIFAFQTMGWYRQAPGKERELVASITYGSSTNYADSVKGRFTFSRDNANITVYVQMNSLKPEDTAVYYCAVPQAQYYYYYWGQGTQVTVSS | high polyreactivity |
| QVQPVESGGGLVQAGGSLRLSCAASGRIFGDYAMGWYRQAPGKERELVAAINCSGTSTNYADSVKGRFTISRDNAKYTVYLEMNSLKPEFTAVYYCNAEGTYRPEYDSWVQGTQVTVSS | low polyreactivity |
| QVQQQESGGGLVQAGGSLRLSCAASGTIFQLTVMGRYRQAPGKERELVASIDYGGNTNYADSVKGRFTISRDNAKKTVYLQKYIVKPEDTAVYYCAAYSDSWTTHPYWGQVTQVTVSS | low polyreactivity |
| QVQQQESGGGLVQAGGSLRLSCAASGTIFQLTVMGRYRQAPGKERELVASIDYGGNTNYADSVKGRFTISRDNAKNTVYLQMNRLKPEDTAVYYCSASSDSWTTHPYWGQGTQVTVSS | low polyreactivity |
| QVQQQESGGGLVQAGGSLRLSCAASGTIFQLTVMGRYRQAPGKERELVASIDYGGNTNYADSVKGRFTISRDNAKYTVYLLMISLKPEDTAVYYCAASSVSWTTHPYWGQGTQVTVSS | low polyreactivity |
| QVQQQESGGGLVQAGGSLRLSSAASVTILYTLGLGLYRQAPGKTLEFVASITWGTTTNYAESVKGRFTISRDNAKNSVYLQMNSLKPEDTADYYCAARKFVYWYGMEYWGQGTQVTVSS | low polyreactivity |
| QVQQQESGGGLVQAGGSLRRSCAASGSIFSHWAMGWYRQTPGKERELVASITAGGNNNYADSVKGRFTISRDNAKNTVYLPMNSLKPEDTAVYYCNRRYPGPDSFEHYYYYRYDYWGQGTQVTVSS | low polyreactivity |
| QVQQQQSGGGLVQAGGSLSLSCAASGTIFQLTVMGRYRQAPGKERELVASIDYGGNTNYADSVKGRFTISRDNAKNTVYLQMNSLKPEDTEVYYCAASSDTWTTHPFWGQGTQVTVSS | low polyreactivity |
| QVQQQVSGGGLVQAGGSLRLSCAASGYIFQNVPMGWNRQAPGKERDLVAGIDNGTSTNYADSVNGRFTISRDNAKNTVYLQMNSLKPEVTAVYYCAAAGQADDTLGYWGQGTLVTVSS | low polyreactivity |
| QVQREESGGGLVQAGGRLRLTCAASGSIFGYYVMGWYRQAPGKERELVAAITRSGSTYYADSVKGRFTISRDNAKNTVYLQMNSLKPEDTAVYYCYADVYWPGTPYTHDYWGQGTQVTVSS | low polyreactivity |
| QVQRVDSGGGLVQAGGSLRLICAASGFTFKYYAMGWYRQAPGKERELVAAITRGGDTYYADSVMGRFTISRDNAKNTVYLQMNRLKPEETAVYYCNTASDKRAFDYWGQGTQLTVSS | low polyreactivity |
| QVQRVDSGGGLVQAGGSLRLSCAASGITLLRYTMGWYRQAPGKERELLASITKRGGSTYYADSVKGRFTISRDNAKNTVYLQMNSLKPEDTAVYYCNADRHNSYYRKWDQLDMDYWGQGTQVTVSS | high polyreactivity |
| QVQRVESAGGLVQARGSLRLSSAASGRIFKAYAMGCYRQAPGKERELVAAISRSGGNTYYADSVKGRFTISRDNAKYTVYLQLNSLKPEETAVYYCAARRFWGSDYDYWGQGTQVTVSS | high polyreactivity |
| QVQRVESAGRLVQAGGSLRLSCAPSGRTFPGNDMGWYRQAPGKESEFVAAISSDDSTYYADSVKGRFTISRDNAKNTVYLQMNSLKPEDTGVYYSNAEYFEGYIGVPGSYWPYEYWGQGNQVTVSS | low polyreactivity |
| QVQRVESEGGLVQAGGSLRLSCAASGRTFENYAMGWYRQAPGKERELVATINGRSGNTYYADSVKGRFTISRDNAKNTVYLQLNSLKPDDTAVYYCNAYYEGDYTVGYDYWGQGTQVTVSS | high polyreactivity |
| QVQRVESGGCLVQAGGSLRLSCAASGRTFSYYTMGWYRQAPGKEREFVATINTSGGSTYYADSVKGRFTISRDNAKNTVYLQMNSLKPEDTAVYYCAADVYSFLSISYQWYRMDYWGQGTQVTVSS | low polyreactivity |
